For one molecule, Ave OD and OD S/N (ratio to GST only well) results are on record in patent US20040229298A1.

What all share (assay): G assay ELISA, 10 uM biotin peptide on anti-GST-captured GST-PDZ
Assay [1] concerns the target GST-FLJ00011 PDZ domain 1 (human).
For assay [2], the target named is GST-KIAA0380 PDZ domain 1, clone #25.6 (human).
The target in assay [3] is GST-MUPP1 PDZ domain 10 (human).
The target of assay [4] is GST-Serine Protease PDZ domain 1 (human).
The target of assay [5] is GST-X-11 beta PDZ domain 1 (human).
The target in assay [6] is GST-ZO-2 PDZ domain 2 (human).

Values joined by “and” are separate entries in the source; they are usually repeats but may differ in a detail not shown here. Identical values can stand only once. Ends that are not written are not given here.

As to WTGRCMSCCRSSRTRRETQL (not fully specified; cysteine pairing not given here) [HPV16 E6 C-terminal PDZ ligand peptide (20 mer, biotinylated), P03126 139-158], the Ave OD is 0.423 A450 nm in assay [1]; 0.376 A450 nm in assay [2]; 0.393 A450 nm and 0.392 A450 nm in assay [3]; 0.343 A450 nm in assay [4]; 0.352 A450 nm in assay [5]; 0.356 A450 nm in assay [6]. Also, the OD S/N (ratio to GST only well) in assay [1] was 2.9; in assay [2], 1.95; in assay [3], 2.03 and 1.96; in assay [4] it was 1.55; in assay [5], 2.02; in assay [6], 2.15.
